Test results from patent publication US20090123480A1 (REGENTS OF THE UNIVERSITY OF MICHIGAN, published 2009).
Values belong to the molecule of their own block, whether it stands above or below them. Non-standard residues stand in square brackets, D forms with d. No end group written: not given here. *: point of attachment. 5FAM = O=C1OC2(c3ccc(O)cc3Oc3cc(O)ccc32)c2ccc(C(=O)*)cc21; Abu = CC[C@H](N)C(=O)O

Columns and labels:
[1] = target: human XIAP protein (residues 120-356) (human) (UniProt P98170); experiment: fluorescence polarization competition against the Smac2-F tracer
caspase-7 = caspase-7 (UniProt P55210); experiment: cell-based or functional assay
caspase-3 = caspase-3 (UniProt P42574); experiment: cell-based or functional assay
[2] = target: T1, recombinant XIAP BIR3 protein of human XIAP (residues 241-356) fused to His-tag (human, UniProt P98170 241-356); experiment: fluorescence polarization, direct binding of the labelled peptide
T1 construct: range 241-356; not shown: His-tag
T1 sequence (P98170 241-356 limits assumed): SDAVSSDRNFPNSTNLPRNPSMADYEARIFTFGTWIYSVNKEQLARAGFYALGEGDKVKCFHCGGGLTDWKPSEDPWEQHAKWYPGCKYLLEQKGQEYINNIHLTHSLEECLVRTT

Sequence of caspase-3 (P42574 29-277 limits assumed): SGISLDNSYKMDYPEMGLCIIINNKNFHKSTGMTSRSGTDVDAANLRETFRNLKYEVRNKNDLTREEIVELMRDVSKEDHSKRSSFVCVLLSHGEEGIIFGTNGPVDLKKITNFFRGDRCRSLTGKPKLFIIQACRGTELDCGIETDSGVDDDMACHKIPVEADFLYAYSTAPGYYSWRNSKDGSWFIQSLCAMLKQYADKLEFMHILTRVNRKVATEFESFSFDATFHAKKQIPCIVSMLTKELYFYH
Sequence of human XIAP protein (residues 120-356) (human) (P98170 120-356 limits assumed): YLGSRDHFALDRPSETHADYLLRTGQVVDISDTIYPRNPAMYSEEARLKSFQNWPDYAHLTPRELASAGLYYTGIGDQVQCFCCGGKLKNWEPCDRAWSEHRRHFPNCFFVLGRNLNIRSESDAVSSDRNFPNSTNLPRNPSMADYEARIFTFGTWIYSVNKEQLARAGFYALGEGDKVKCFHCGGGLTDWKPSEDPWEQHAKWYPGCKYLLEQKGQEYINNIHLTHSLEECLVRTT
Sequence of caspase-7 (P55210 24-303 limits assumed): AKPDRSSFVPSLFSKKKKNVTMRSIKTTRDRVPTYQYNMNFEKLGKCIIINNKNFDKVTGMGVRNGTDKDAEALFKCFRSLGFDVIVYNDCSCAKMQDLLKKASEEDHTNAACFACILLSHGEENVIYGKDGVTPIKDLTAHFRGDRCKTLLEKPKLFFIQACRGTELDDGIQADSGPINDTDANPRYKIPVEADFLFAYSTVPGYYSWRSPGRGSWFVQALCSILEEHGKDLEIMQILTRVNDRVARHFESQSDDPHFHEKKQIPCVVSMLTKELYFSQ

fold less potent than the small molecule SH-164 (IC50 […] nM) in the competitive binding assay [1]: > 5000 fold
Molecule: natural Smac peptide AVPI (SEQ ID NO: 1)

inhibition of caspase-3/-7 activity, cell-free functional assay (caspase-7): 50 nM
inhibition of caspase-3/-7 activity, cell-free functional assay (caspase-3): 50 nM
Molecule: human XIAP protein (residues 120-356) (from UniProt P98170 120-356)

Kd [2]: 17.9 nM
B1: mutated Smac peptide AbuRPF-K-(5-Fam)-NH2 (termed SM5F) (peptide)
peptide: [Abu]RPFK(5FAM)-NH2
modifications: N-terminus assumed
SMILES: CC[C@H](N)C(=O)N[C@@H](CCCNC(=N)N)C(=O)N1CCC[C@H]1C(=O)N[C@@H](Cc1ccccc1)C(=O)N[C@@H](CCCCNC(=O)c1ccc2c(c1)C(=O)OC21c2ccc(O)cc2Oc2cc(O)ccc21)C(N)=O
notes: Fluorescent tracer of the XIAP BIR3 fluorescence polarization assay; also called SM5F peptide
